One protein from PMC8605562, “MSMEG_3955 from Mycobacterium smegmatis is a FMN bounded homotrimeric NAD(P)H:Flavin mononucleotide (FMN) oxidoreductase” (BMC Microbiology, 2021) can be followed below.

The data set deals with the molecule itself. As to the kind of experiment: native gel or EMSA; NATIVE-PAGE (12% in the methods, 10% in the legend of Fig. 3a) of purified protein loaded without any treatment, 10 ug (Fig. 3a) or 20 ug each of wild type and mutant (Fig. 2a); band at ~115 kDa against ~36 kDa on SDS-PAGE. (In general: A gel shift assay detects complexes by their altered migration in electrophoresis.)

As a reminder, the stoichiometry N is a count of units in the complex or per binding partner.

B1: MSMEG_3955 from Mycobacterium smegmatis, recombinant wild-type protein (enzyme, Mycobacterium smegmatis mc2 155, UniProt A0QZA6 1-334, looked up)
chain: MNTHFPDTETIHAALALAMRAPSIHNSQPWQWRVGERSVHLYADLDRHLTSTDPDSRDLLLSCGAALHHCVIAFAALGWYASVHRLPNPAEPEHLASIELRRQTPTDLDIALAAAIPRRRTDRRHYSAWPVSHSDIAMMGARAARAGVMLRRVESLSRLQDIVAESIARHAADDGYLRELTAWSGKYASTAGVPARSAPKPEPGAPLSSRMFAGAALKQPDTGAGADEGAVVLALGTADDTRMSRLRAGEATSLILLTATAMGLATCPVTEPLEISETRDAVQAEVFGASAFPQMMLRVGWAPVNADPLPPTPRRHVADAVRWLDGSPFEPESE
notes: MSMEG_3955, Mycobacterium smegmatis mc2 155, NADPH-dependent FMN oxidoreductase of the Acg family; gene amplified from genomic DNA with primers from the ATG to the stop codon (~1005 bp amplicon, ~36 kDa protein); tag removal is not described; also called protein MSMEG_3955; homologue of Rv3131; source: E. coli BL21 (DE3), pET-28a, purified (Ni-NTA)
In the case of B1, the “stoichiometry N” value was determined as 3.
